Laboratory results as given in article PMC7242751, “Novel ssDNA Ligand Against Ovarian Cancer Biomarker CA125 With Promising Diagnostic Potential”.

Target: CA125 (native antigen) (human, UniProt Q8WXI7 1-14451)
Test: nitrocellulose membrane binding, elution and nanodrop quantification; CA125 20 U/mL immobilized; 1 mM Mg2+ in binding buffer; SELEX binding buffer 10 mM PBS, 1 mM MgCl2, 0.01% herring sperm DNA, 25 C; KD in binding buffer (composition not restated), 2 h at RT; pH not stated
Conditions: protein: native

Binder | Kd
Apt 2.26 (ssDNA) DNA: TAGGGAAGAGAAGGACATATGATTTTAGGGAAGAGAAGGACTTTTATGCCGCCTTGACTAGTACATGACCACTTGA | 166 nM
Apt 2.43 (ssDNA) DNA: TAGGGAAGAGAAGGACATATGATGATCAACAACACAAGGGGGGGGGTATCTAGTTGACTAGTACATGACCACTTGA | 239 nM
